Experiment [1] concerns the target recombinant human Cdk5 (Cyclin-Dependent Kinase 5) (human) (UniProt Q00535).
For experiment [2] the target is unchanged. Briefly: SPR; recombinant Cdk5 immobilised on a Ni-NTA sensor chip (NiCl2 solution, then the protein); peptide YCWS passed over at 0.4, 0.6 and 1 µM; KA and KD calculated with BIA evaluation 3.0 software.

Broadly, the Kd is the equilibrium constant for the complex coming apart. On to peptide YCWS, for which, in experiment [1], the cell viability (MTT) of differentiated SH-SY5Y cells treated with 20 µM aggregated Aβ25–35 together with YCWS at 2, 5, 10, 15 and 20 µM (77.65% without the peptide) was determined as 98.5%. Also, in experiment [2], the Kd was 3.94 nM.

Source of the values: publication PMC12562681, “Targeting a Tau Kinase Cdk5, Cyclin-Dependent Kinase: A Blood-Based Diagnostic Marker and Therapeutic Earmark for Alzheimer’s Disease” (Biomolecules, 2025).
